Data as given in patent US20210332115A1 (Sanofi, published 2021).

How the values were obtained:
[1] = molecular target: T1, Homo sapiens factor Bb protein (human, UniProt P00751 260-764); test: ELISA, factor Bb coated at 2.5 µg/mL, biotinylated antibody titrated, streptavidin-HRP, OD450 background subtracted
T1 construct: Bought from CompTech (A155); also called complement factor Bb; human factor Bb
Protocol: (§1) Briefly, complement and plasma proteins were coated onto ELISA plates at 2. 5 μg/mL in PBS overnight at 4° C. Plates were then blocked with Casein for 1 hour at room temperature and washed four times with 1× DPBS/0.05% Tween-20 followed by a single wash with 1× DPBS. Serial dilutions starting at 50 μg/ml of biotinylated chimeric parent or VH6/VK7-IgG4v2 were added to the plate in PBS/0.1%casein/0.1%Tween-20 and incubated for 2 hours at room temperature. Plates were washed as described and a 1:10,000 dilution of streptavidin-HRP (Southern Biotech 7100-05) in PBS/0.1% casein/0.1% Tween-20 was added to the plate and incubated for 30 minutes at room temperature. Plates were again washed and Ultra TMP ELISA (Thermo 34028) was added to the plate for 1 minute, followed by stop solution). OD 450 nm was read in a plate reader and background at 620 nm was subtracted. Both the chimeric parent (FIG. 8A) and the humanized variant (FIG. 8B) show complete specificity for factor Bb.

[2] = molecular target: T2, aCls (Comptech A104) (UniProt P09871 16-688); test: ELISA, target coated at 2.5 µg/mL, biotinylated antibody titrated, streptavidin-HRP, OD450 background subtracted
T2 construct: the active enzyme is a two-chain form of this precursor; also called aC1s
T2 sequence (looked up): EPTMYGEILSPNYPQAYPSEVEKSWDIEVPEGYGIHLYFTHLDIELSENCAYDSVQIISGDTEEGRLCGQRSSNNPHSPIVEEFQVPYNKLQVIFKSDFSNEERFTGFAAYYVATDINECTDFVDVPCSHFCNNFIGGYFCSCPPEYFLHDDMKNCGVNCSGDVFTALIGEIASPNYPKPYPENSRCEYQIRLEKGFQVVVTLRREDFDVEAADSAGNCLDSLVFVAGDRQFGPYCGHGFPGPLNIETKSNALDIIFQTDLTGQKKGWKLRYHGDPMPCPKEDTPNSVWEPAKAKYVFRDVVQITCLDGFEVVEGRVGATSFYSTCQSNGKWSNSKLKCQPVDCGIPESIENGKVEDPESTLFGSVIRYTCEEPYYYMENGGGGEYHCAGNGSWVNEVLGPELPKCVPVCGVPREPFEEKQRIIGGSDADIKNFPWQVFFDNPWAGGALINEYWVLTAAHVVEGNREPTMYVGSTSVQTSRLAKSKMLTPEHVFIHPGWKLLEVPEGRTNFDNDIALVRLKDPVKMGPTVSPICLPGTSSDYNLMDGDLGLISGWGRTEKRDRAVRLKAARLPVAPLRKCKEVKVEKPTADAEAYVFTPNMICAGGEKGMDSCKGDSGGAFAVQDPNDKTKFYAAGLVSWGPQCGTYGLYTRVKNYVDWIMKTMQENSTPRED
Protocol: as §1

[3] = molecular target: factor D (Competech A136) (UniProt P00746 26-253); test: as above
Protocol: as §1

[4] = molecular target: T3, C2a (prepared from C2) (UniProt P06681 244-752, limits assumed); test: as above
T3 construct: domain: C2a
T3 sequence (looked up): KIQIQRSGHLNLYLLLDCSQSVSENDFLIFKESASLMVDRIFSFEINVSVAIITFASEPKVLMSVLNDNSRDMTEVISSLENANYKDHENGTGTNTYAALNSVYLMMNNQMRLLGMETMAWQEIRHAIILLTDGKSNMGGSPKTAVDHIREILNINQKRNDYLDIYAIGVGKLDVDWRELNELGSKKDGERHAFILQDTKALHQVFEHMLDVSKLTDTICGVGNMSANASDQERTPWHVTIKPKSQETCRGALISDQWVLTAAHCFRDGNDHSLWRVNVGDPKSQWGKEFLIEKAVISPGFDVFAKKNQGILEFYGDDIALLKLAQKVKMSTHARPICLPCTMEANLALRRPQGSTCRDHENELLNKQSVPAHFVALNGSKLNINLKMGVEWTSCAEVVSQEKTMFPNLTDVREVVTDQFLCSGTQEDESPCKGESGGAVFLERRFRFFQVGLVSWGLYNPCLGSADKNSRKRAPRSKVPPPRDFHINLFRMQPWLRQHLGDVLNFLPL
Protocol: as §1

[5] = molecular target: T4, C1r (Comptech A102) (UniProt P00736 18-705); test: as above
T4 sequence (looked up): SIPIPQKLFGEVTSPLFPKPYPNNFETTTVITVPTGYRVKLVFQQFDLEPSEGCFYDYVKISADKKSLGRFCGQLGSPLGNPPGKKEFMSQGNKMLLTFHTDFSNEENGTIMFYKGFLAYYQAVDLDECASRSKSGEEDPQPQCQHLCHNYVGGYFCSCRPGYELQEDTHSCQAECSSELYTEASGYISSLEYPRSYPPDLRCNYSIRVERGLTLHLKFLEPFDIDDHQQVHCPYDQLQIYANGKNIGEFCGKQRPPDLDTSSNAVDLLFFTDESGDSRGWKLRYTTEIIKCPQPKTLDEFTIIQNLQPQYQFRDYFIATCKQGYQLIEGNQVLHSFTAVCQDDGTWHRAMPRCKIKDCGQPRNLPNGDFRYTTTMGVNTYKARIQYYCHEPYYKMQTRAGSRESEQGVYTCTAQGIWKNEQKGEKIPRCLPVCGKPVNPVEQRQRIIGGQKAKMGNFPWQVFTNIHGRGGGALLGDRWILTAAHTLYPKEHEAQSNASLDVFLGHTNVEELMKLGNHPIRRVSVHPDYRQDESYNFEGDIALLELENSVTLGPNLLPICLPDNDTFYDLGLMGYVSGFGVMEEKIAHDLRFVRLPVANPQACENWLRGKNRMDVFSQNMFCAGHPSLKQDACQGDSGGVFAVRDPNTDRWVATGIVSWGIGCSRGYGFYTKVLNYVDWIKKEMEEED
Protocol: as §1

[6] = molecular target: thrombin (EMD Millipore 605195) (UniProt P00734 328-622); test: as above
Protocol: as §1

T1 sequence (P00751 260-764 limits assumed): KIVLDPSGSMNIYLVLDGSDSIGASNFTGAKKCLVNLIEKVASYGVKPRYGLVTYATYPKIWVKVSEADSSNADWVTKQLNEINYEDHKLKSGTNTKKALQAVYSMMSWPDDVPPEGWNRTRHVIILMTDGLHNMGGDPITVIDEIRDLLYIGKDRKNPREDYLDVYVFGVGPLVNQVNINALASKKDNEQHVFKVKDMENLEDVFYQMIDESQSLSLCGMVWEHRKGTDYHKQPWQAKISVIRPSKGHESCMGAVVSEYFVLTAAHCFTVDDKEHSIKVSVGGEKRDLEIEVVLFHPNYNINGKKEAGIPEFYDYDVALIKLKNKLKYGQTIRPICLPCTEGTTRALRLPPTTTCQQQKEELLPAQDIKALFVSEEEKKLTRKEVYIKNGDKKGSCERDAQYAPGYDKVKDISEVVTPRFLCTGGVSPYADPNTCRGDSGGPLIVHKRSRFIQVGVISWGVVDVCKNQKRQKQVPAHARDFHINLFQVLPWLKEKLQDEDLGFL
Chain of factor D (Competech A136) (P00746 26-253 limits assumed): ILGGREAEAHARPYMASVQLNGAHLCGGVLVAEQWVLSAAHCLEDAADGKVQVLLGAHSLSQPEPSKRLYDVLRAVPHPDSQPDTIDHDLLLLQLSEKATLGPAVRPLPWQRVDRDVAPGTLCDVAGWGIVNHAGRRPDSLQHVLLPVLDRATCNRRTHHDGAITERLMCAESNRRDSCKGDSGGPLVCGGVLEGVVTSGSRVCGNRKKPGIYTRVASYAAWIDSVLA

B1: VH0/Vκ0 (Chimeric) (antibody, V domains shown)
VH: EVQLVESGGALVKPGGSLKLSCAASGFTFSNYAMSWVRQTPEKRLEWVATISNRGSYTYYPDSVKGRFTISRDNAKNTLYLQMSSLRSEDTALYYCARERPMDYWGQGTSVTVSS
VL: DIVMTQSHKFMSTSVGDRVSITCKASQDVGTAVAWYQQKPGQSPKLLIYWASTRHTGVPDRFTGSGSGTDFTLTITNVQSEDLAVYFCHQHSSNPLTFGAGTKLELK
notes: also called chimeric antibody
B1 was tested, and the “EC50 (read off the curve)” value [1] was ~0.01 µg/mL, the binding result [2] was “no binding (tested: about 10^5 ng/mL (log 5 on the axis))” and the binding result [3] was “no binding (tested: about 10^5 ng/mL (log 5 on the axis))”. B1: no binding (tested: about 10^5 ng/mL (log 5 on the axis)) [4]; no binding (tested: about 10^5 ng/mL (log 5 on the axis)) [5]; no binding (tested: about 10^5 ng/mL (log 5 on the axis)) [6].

B2: VH6/Vκ7-IgG4v2 (antibody)
heavy: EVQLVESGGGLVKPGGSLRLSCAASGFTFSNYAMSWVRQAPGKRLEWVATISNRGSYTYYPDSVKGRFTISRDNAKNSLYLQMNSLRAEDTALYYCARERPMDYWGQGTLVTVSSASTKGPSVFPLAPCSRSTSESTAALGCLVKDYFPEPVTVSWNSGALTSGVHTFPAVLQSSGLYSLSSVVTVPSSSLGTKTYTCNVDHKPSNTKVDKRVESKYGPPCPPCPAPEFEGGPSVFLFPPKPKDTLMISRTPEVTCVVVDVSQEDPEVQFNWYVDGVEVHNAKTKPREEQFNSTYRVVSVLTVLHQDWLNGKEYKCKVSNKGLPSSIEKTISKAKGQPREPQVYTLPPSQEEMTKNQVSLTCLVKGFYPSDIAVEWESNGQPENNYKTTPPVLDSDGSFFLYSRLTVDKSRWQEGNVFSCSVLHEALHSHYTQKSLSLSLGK
light: DIQMTQSPSTLSASVGDRVTITCKASQDVGTAVAWYQQKPGKAPKLLIYWASTRHTGVPDRFSGSGSGTDFTLTISSLQAEDFAVYFCHQHSSNPLTFGQGTKLEIKRTVAAPSVFIFPPSDEQLKSGTASVVCLLNNFYPREAKVQWKVDNALQSGNSQESVTEQDSKDSTYSLSSTLTLSKADYEKHKVYACEVTHQGLSSPVTKSFNRGEC
notes: also called VH6/VK7-IgG4v2; VH6/VK7-IgG4v2_HEK
B2 was tested, and the “EC50 (read off the curve)” value [1] was ~0.02 µg/mL, the binding result [2] was “no binding” and the binding result [3] was “no binding”. B2: no binding [4]; no binding [5]; no binding [6].
